{
  "source": "patent US20110091971A1",
  "about": "“Differentiation of Pluripotent Stem Cells” (priority 2008, published 2011)",
  "molecules": {"B1": {"name": "ACTN1: wild type Activin A mature protein (SwissProt/UniProt: P08476), SEQ ID 2, expressed from applicant's construct (protein)", "chain": "GLECDGKVNICCKKQFFVSFKDIGWNDWIIAPSGYHANYCEGECPSHIAGTSGSSLSFHSTVINHYRMRGHSPFANLKSCCVPTKLRPMSMLYYDDGQNIIKKDIQNMIVEECGCS"}, "B2": {"name": "ACTN48: activin A variant peptide, SEQ ID 49 (protein)", "chain": "B1 chain with I10L, F16N, Y39E, E41S, E43L, L77M, K78G, S79A, V82I"}, "B3": {"name": "ACTN4: activin A variant peptide, SEQ ID 5 (protein)", "chain": "B1 chain with I10L, F16L, Y39H, E41S, E43L, A75S, N76D, L77M, K78G, S79A"}},
  "system": "H1 or H9 human embryonic stem cells",
  "assay": "Activin A bioassay: differentiation of human embryonic stem cells to definitive endoderm, cell number and SOX17 intensity by high content analysis (96-well, four days);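 as to Cell Number average: Raw total cell count per well from high content imaging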;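 as to Sox 17 Intensity average: total fluorescence of the cell multiplied by cell area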",
  "type": "cell-based",
  "summary_of_the_method": "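Read-out was cell count and integrated SOX17 immunofluorescence by high-content imaging, with each well divided by the mean of the 100 ng/ml activin A control. Over the four-day culture, test samples were given in DMEM:F12 with 0.5% FCS plus 20 ng/ml Wnt3a for the first two days and in 2% FCS alone for the last two. Cells were H1 or H9 hESC clusters grown on Matrigel.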",
  "key": {"[1]": {"settings": "concentrated supernatant (10x; ACTD3 4x), assay dilution 1:20"}, "[2]": {"settings": "supernatant concentration 1x, assay dilution 1:20"}, "[3]": {"settings": "supernatant concentration 10x, assay dilution 1:20"}, "[4]": {"settings": "supernatant concentration 10x, assay dilution 1:20, assay plates #007, #009, #010"}, "[5]": {"settings": "supernatant concentration 10x, assay dilution 1:40"}, "[6]": {"settings": "supernatant concentration 10x, assay dilution 1:40, control = R&D Sys Activin A 100 ng/ml on same plate"}, "[7]": {"settings": "supernatant concentration 50x, assay dilution 1:20, assay plates #008, #009"}, "[8]": {"settings": "supernatant concentration 50x, assay dilution 1:20, control = R&D Sys Activin A 100 ng/ml on same plate"}, "[9]": {"settings": "supernatant concentration 10x, assay dilution 1:20, control = R&D Sys Activin A 100 ng/ml on same plate"}},
  "note": "Changes are numbered by the printed parent chain. Several values for one entry are separate records, joined by “and”; a condition that tells them apart may be missing. Identical values can stand only once.",
  "data": [
    {"molecule": "B1", "values": [
      {"measurement": "activity in the cell-based assay, as judged by cell number and SOX17 intensity increases", "setting": "ACTN 1 pUnder construct versus OriGene wildtype construct, CHO-S or HEK293-F supernatants", "result": "greater activity"},
      {"measurement": "expression/activity of supernatant measured by SOX17 expression levels", "setting": "CHOS cells, even after concentrating the supernatant", "result": "weak or negligible results"},
      {"measurement": "Cell Number average", "setting": "[1]", "result": 12233},
      {"measurement": "Sox 17 Intensity average", "setting": "[1]", "result": "1.15E+08"},
      {"measurement": "Sox 17 Intensity % of control", "setting": "concentrated supernatant (10x; ACTD3 4x), assay dilution 1:20, control = R&D Sys Activin A 100 ng/ml", "result": 263, "unit": "%"},
      {"measurement": "expression/activity of supernatant measured by SOX17 expression levels", "setting": "pUnder expression vector and HEK293F cells", "result": "significantly improved"},
      {"measurement": "Cell Number average", "setting": "[2]", "result": "4284 and 5466"},
      {"measurement": "Cell Number average", "setting": "[3]", "result": "7083 and 9254"},
      {"measurement": "Cell Number average", "setting": "[4]", "result": "12543 and 11568 and 15112"},
      {"measurement": "Cell Number average", "setting": "[5]", "result": 5924},
      {"measurement": "Sox 17 Intensity average", "setting": "[5]", "result": "1.10E+08"},
      {"measurement": "Sox 17 Intensity % of control", "setting": "[6]", "result": 480.5, "unit": "%"},
      {"measurement": "Cell Number average", "setting": "[7]", "result": 13673},
      {"measurement": "Sox 17 Intensity average", "setting": "[7]", "result": "2.60E+08"},
      {"measurement": "Sox 17 Intensity % of control", "setting": "[8]", "result": 470.1, "unit": "%"}
    ]},
    {"molecule": "B2", "values": [
      {"measurement": "Cell Number average", "setting": "[4]", "result": 6030},
      {"measurement": "Sox 17 Intensity average", "setting": "[4]", "result": "1.77E+07"},
      {"measurement": "Sox 17 Intensity % of control", "setting": "[9]", "result": 71.1, "unit": "%"},
      {"measurement": "Cell Number average", "setting": "[7]", "result": 8941},
      {"measurement": "Sox 17 Intensity average", "setting": "[7]", "result": "3.93E+07"},
      {"measurement": "Sox 17 Intensity % of control", "setting": "[8]", "result": 157.8, "unit": "%"}
    ]},
    {"molecule": "B3", "values": [
      {"measurement": "higher potency of supernatant concentrated 10× relative to corresponding unconcentrated supernatant", "setting": "primary screening, SOX17 expression, H1 cells", "result": 2.6, "unit": "fold"},
      {"measurement": "Cell Number average", "setting": "[2]", "result": 6380},
      {"measurement": "Sox 17 Intensity average", "setting": "[2]", "result": "9.099E+07"},
      {"measurement": "Sox 17 Intensity % of control", "setting": "supernatant concentration 1x, assay dilution 1:20, control = R&D Sys Activin A 100 ng/ml on same plate", "result": 49.5, "unit": "%"},
      {"measurement": "Cell Number average", "setting": "[3]", "result": 8916},
      {"measurement": "Sox 17 Intensity average", "setting": "[3]", "result": "2.385E+08"},
      {"measurement": "Sox 17 Intensity % of control", "setting": "[9]", "result": 129.7, "unit": "%"},
      {"measurement": "Cell Number average", "setting": "[5]", "result": 6548},
      {"measurement": "Sox 17 Intensity average", "setting": "[5]", "result": "2.075E+08"},
      {"measurement": "Sox 17 Intensity % of control", "setting": "[6]", "result": 112.8, "unit": "%"}
    ]}
  ]
}
